Publication PMC10943247 (2024)

Tests used:
[1] = biological target: CRL2^FEM1B complex with FEM1B^Y275R/L278R, unneddylated (human, UniProt Q13617 1-745; P62877 1-108; Q15370 1-104; Q15369 17-112; Q9UK73 1-627, Y275R | L278R)
[2] = biological target: CRL2^FEM1B complex with FEM1B^Δ546-553 (FEM1B^DEL), unneddylated (human, UniProt Q13617 1-745; P62877 1-108; Q15370 1-104; Q15369 17-112; Q9UK73 1-627, Δ546-553)
[3] = biological target: CRL2^FEM1B complex with FEM1B^F549R, unneddylated (human, UniProt Q13617 1-745; P62877 1-108; Q15370 1-104; Q15369 17-112; Q9UK73 1-627, F549R)
[4] = biological target: CRL2^FEM1B complex with FEM1B^F549S, unneddylated (human, UniProt Q13617 1-745; P62877 1-108; Q15370 1-104; Q15369 17-112; Q9UK73 1-627, F549S)
[5] = biological target: CRL2^FEM1B complex with FEM1B^F549T, unneddylated (human, UniProt Q13617 1-745; P62877 1-108; Q15370 1-104; Q15369 17-112; Q9UK73 1-627, F549T)

- koff [1]: 0.000653 s⁻¹
- koff [2]: 0.000955 s⁻¹
- koff [3]: 0.00141 s⁻¹
- koff [4]: 0.00178 s⁻¹
- koff [5]: 0.00184 s⁻¹
B1: FNIP1/FLCN complex (complex)
chain 1: MAPTLFQKLFSKRTGLGAPGRDARDPDCGFSWPLPEFDPSQIRLIVYQDCERRGRNVLFDSSVKRRNEDISVSKLGSDAQVKVFGKCCQLKPGGDSSSSLDSSVTSSSDIKDQCLKYQGSRCSSDANMLGEMMFGSVAMSYKGSTLKIHQIRSPPQLMLSKVFTARTGSSICGSLNTLQDSLEFINQDNNTLKADNNTVINGLLGNIGLSQFCSPRRAFSEQGPLRLIRSASFFAVHSNPMDMPGRELNEDRDSGIARSASLSSLLITPFPSPNSSLTRSCASSYQRRWRRSQTTSLENGVFPRWSIEESFNLSDESCGPNPGIVRKKKIAIGVIFSLSKDEDENNKFNEFFFSHFPLFESHMNKLKSAIEQAMKMSRRSADASQRSLAYNRIVDALNEFRTTICNLYTMPRIGEPVWLTMMSGTPEKNHLCYRFMKEFTFLMENASKNQFLPALITAVLTNHLAWVPTVMPNGQPPIKIFLEKHSSQSVDMLAKTHPYNPLWAQLGDLYGAIGSPVRLARTVVVGKRQDMVQRLLYFLTYFIRCSELQETHLLENGEDEAIVMPGTVITTTLEKGEIEESEYVLVTMHRNKSSLLFKESEEIRTPNCNCKYCSHPLLGQNVENISQQEREDIQNSSKELLGISDECQMISPSDCQEENAVDVKQYRDKLRTCFDAKLETVVCTGSVPVDKCALSESGLESTEETWQSEKLLDSDSHTGKAMRSTGMVVEKKPPDKIVPASFSCEAAQTKVTFLIGDSMSPDSDTELRSQAVVDQITRHHTKPLKEERGAIDQHQETKQTTKDQSGESDTQNMVSEEPCELPCWNHSDPESMSLFDEYFNDDSIETRTIDDVPFKTSTDSKDHCCMLEFSKILCTKNNKQNNEFCKCIETVPQDSCKTCFPQQDQRDTLSILVPHGDKESSDKKIAVGTEWDIPRNESSDSALGDSESEDTGHDMTRQVSSYYGGEQEDWAEEDEIPFPGSKLIEVSAVQPNIANFGRSLLGGYCSSYVPDFVLQGIGSDERFRQCLMSDLSHAVQHPVLDEPIAEAVCIIADMDKWTVQVASSQRRVTDNKLGKEVLVSSLVSNLLHSTLQLYKHNLSPNFCVMHLEDRLQELYFKSKMLSEYLRGQMRVHVKELGVVLGIESSDLPLLAAVASTHSPYVAQILL
chain 2: MNAIVALCHFCELHGPRTLFCTEVLHAPLPQGDGNEDSPGQGEQAEEEEGGIQMNSRMRAHSPAEGASVESSSPGPKKSDMCEGCRSLAAGHPGYISHDKETSIKYVSHQHPSHPQLFSIVRQACVRSLSCEVCPGREGPIFFGDEQHGFVFSHTFFIKDSLARGFQRWYSIITIMMDRIYLINSWPFLLGKVRGIIDELQGKALKVFEAEQFGCPQRAQRMNTAFTPFLHQRNGNAARSLTSLTSDDNLWACLHTSFAWLLKACGSRLTEKLLEGAPTEDTLVQMEKLADLEEESESWDNSEAEEEEKAPVLPESTEGRELTQGPAESSSLSGCGSWQPRKLPVFKSLRHMRQVLGAPSFRMLAWHVLMGNQVIWKSRDVDLVQSAFEVLRTMLPVGCVRIIPYSSQYEEAYRCNFLGLSPHVQIPPHVLSSEFAVIVEVHAAARSTLHPVGCEDDQSLSKYEFVVTSGSPVAADRVGPTILNKIEAALTNQNLSVDVVDQCLVCLKEEWMNKVKVLFKFTKVDSRPKEDTQKLLSILGASEEDNVKLLKFWMTGLSKTYKSHLMSTVRSPTASESRN
